Measurements as given in the supplement of paper PMC9112550, “Optimization of the antimicrobial peptide Bac7 by deep mutational scanning” (BMC Biology, 2022).

tested on: Escherichia coli TOP10; test: shrunken log2 fold change of peptide-encoding DNA abundance (4.5 h post-induction vs induction); higher = less antimicrobial activity (less host growth inhibition); details: time post-induction: 4.5 h; library: site-saturation at positions 5, 18, 19, 20
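Further: peptides expressed intracellularly from a pBAD plasmid library in pooled LB shake-flask culture, induced with 0.3% L-arabinose, DNA abundance read by NGS, three biological replicates, DESeq2 with apeglm shrinkage.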

Sequence | shrunken log2 fold change
RRIRTRPPRLPRPRPRPVATPRP | 0.299
RRIRKRPPRLPRPRPRPELQPRP | 0.307
RRIRLRPPRLPRPRPRPYQHPRP | -0.661
RRIRTRPPRLPRPRPRPDGVPRP | -0.0136
RRIRSRPPRLPRPRPRPAWLPRP | 0.534
RRIRCRPPRLPRPRPRPKARPRP | 0.315
RRIRPRPPRLPRPRPRPHICPRP | -0.0442
RRIRFRPPRLPRPRPRPKIPPRP | -0.428
RRIRCRPPRLPRPRPRPYCYPRP | -0.669
RRIRVRPPRLPRPRPRPSAEPRP | 0.299
RRIRERPPRLPRPRPRPCNDPRP | -0.19
RRIRIRPPRLPRPRPRPMSRPRP | -0.24
RRIRRRPPRLPRPRPRPFCNPRP | -0.259
RRIRVRPPRLPRPRPRPVAFPRP | -0.0455
RRIRARPPRLPRPRPRPRCDPRP | 0.324
RRIRNRPPRLPRPRPRPKIQPRP | -0.367
RRIRARPPRLPRPRPRPEVKPRP | 0.123
RRIRCRPPRLPRPRPRPTQDPRP | 0.805
RRIRHRPPRLPRPRPRPKIVPRP | 0.00911
RRIRDRPPRLPRPRPRPKDTPRP | 0.0607
RRIRWRPPRLPRPRPRPFVHPRP | -0.423
RRIRWRPPRLPRPRPRPTVVPRP | 0.134

Sequence | shrunken log2 fold change
RRIRDRPPRLPRPRPRPQYWPRP | -0.695
RRIRDRPPRLPRPRPRPWHWPRP | 0.00118
RRIRYRPPRLPRPRPRPYQHPRP | -1.87
RRIRCRPPRLPRPRPRPRHEPRP | -0.117
RRIRVRPPRLPRPRPRPSEMPRP | 0.0713
RRIRYRPPRLPRPRPRPRYDPRP | -0.21
RRIRDRPPRLPRPRPRPHTQPRP | -0.455
RRIRHRPPRLPRPRPRPCADPRP | -0.12
RRIRRRPPRLPRPRPRPSAHPRP | -0.0606
RRIRGRPPRLPRPRPRPIEHPRP | 0.125
RRIRQRPPRLPRPRPRPPCVPRP | 0.214
RRIRNRPPRLPRPRPRPEDMPRP | -0.0541
RRIRCRPPRLPRPRPRPDDWPRP | 0.104
RRIRVRPPRLPRPRPRPPIEPRP | -0.115
RRIRDRPPRLPRPRPRPWDWPRP | 1.03
RRIRCRPPRLPRPRPRPQNCPRP | 0.137
RRIRKRPPRLPRPRPRPICQPRP | -0.0166
RRIRHRPPRLPRPRPRPWTFPRP | -0.229
RRIRERPPRLPRPRPRPHMMPRP | -1.14
RRIRNRPPRLPRPRPRPHKHPRP | -0.719
RRIRYRPPRLPRPRPRPRVRPRP | 0.175
RRIRNRPPRLPRPRPRPHIYPRP | -0.0215

Sequence | shrunken log2 fold change
RRIRSRPPRLPRPRPRPRCAPRP | 0.509
RRIRLRPPRLPRPRPRPCKIPRP | -0.357
RRIRSRPPRLPRPRPRPHGVPRP | 0.013
RRIRIRPPRLPRPRPRPIMNPRP | -1.27
RRIRGRPPRLPRPRPRPVNYPRP | 0.203
RRIRTRPPRLPRPRPRPNMEPRP | 0.343
RRIRCRPPRLPRPRPRPLNDPRP | 0.0553
RRIRIRPPRLPRPRPRPHQTPRP | 0.0701
RRIRVRPPRLPRPRPRPIVWPRP | -0.328
RRIRTRPPRLPRPRPRPMRKPRP | 0.375
RRIRRRPPRLPRPRPRPNDFPRP | -0.189
RRIRMRPPRLPRPRPRPLQLPRP | 0.102
RRIRKRPPRLPRPRPRPDALPRP | 0.132
RRIRIRPPRLPRPRPRPMFHPRP | -0.517
RRIRIRPPRLPRPRPRPWVGPRP | -0.248
RRIRTRPPRLPRPRPRPLNLPRP | -0.548
RRIRPRPPRLPRPRPRPHQAPRP | 0.0618
RRIRCRPPRLPRPRPRPNLSPRP | -0.431
RRIRSRPPRLPRPRPRPDHNPRP | -0.308
RRIRIRPPRLPRPRPRPKGWPRP | 0.364
RRIRRRPPRLPRPRPRPFYYPRP | -0.204
RRIRNRPPRLPRPRPRPRFLPRP | 0.0562

Sequence | shrunken log2 fold change
RRIRKRPPRLPRPRPRPTQYPRP | 0.0924
RRIRVRPPRLPRPRPRPITNPRP | -0.219
RRIRARPPRLPRPRPRPEPYPRP | 0.34
RRIRERPPRLPRPRPRPNHLPRP | 0.0486
RRIRSRPPRLPRPRPRPYTVPRP | -0.676
RRIRCRPPRLPRPRPRPKLAPRP | 0.551
RRIRCRPPRLPRPRPRPDCDPRP | -0.812
RRIRCRPPRLPRPRPRPYCNPRP | -1.19
RRIRPRPPRLPRPRPRPDEPPRP | 0.0641
RRIRARPPRLPRPRPRPPHCPRP | 0.521
RRIRERPPRLPRPRPRPVAWPRP | 0.00482
RRIRLRPPRLPRPRPRPCFAPRP | 0.179
RRIRQRPPRLPRPRPRPWHYPRP | -0.484
RRIRPRPPRLPRPRPRPPEKPRP | 0.544
RRIRCRPPRLPRPRPRPFMQPRP | -0.402
RRIRYRPPRLPRPRPRPLFLPRP | -0.171
RRIRFRPPRLPRPRPRPQSGPRP | -0.036
RRIRPRPPRLPRPRPRPQTHPRP | -0.272
RRIRYRPPRLPRPRPRPNAWPRP | -0.165
RRIRSRPPRLPRPRPRPKEIPRP | -0.0586
RRIRDRPPRLPRPRPRPLLEPRP | 0.31
RRIRRRPPRLPRPRPRPEIIPRP | 0.0119

Sequence | shrunken log2 fold change
RRIRERPPRLPRPRPRPKAGPRP | 0.174
RRIRIRPPRLPRPRPRPNWAPRP | 0.0373
RRIRPRPPRLPRPRPRPWYLPRP | -0.591
RRIRKRPPRLPRPRPRPVSDPRP | 0.156
RRIRDRPPRLPRPRPRPASSPRP | 0.0229
RRIRERPPRLPRPRPRPEFSPRP | -0.178
RRIRHRPPRLPRPRPRPTRKPRP | 0.00421
RRIRFRPPRLPRPRPRPTPSPRP | 0.636
RRIRIRPPRLPRPRPRPGVYPRP | -0.39
RRIRARPPRLPRPRPRPCKKPRP | -0.0968
RRIRQRPPRLPRPRPRPPICPRP | 0.0388
RRIRHRPPRLPRPRPRPSLCPRP | -0.0468
RRIRYRPPRLPRPRPRPNGCPRP | -0.000687
RRIRCRPPRLPRPRPRPIMGPRP | 0.00854
RRIRCRPPRLPRPRPRPDACPRP | 0.175
RRIRIRPPRLPRPRPRPGKWPRP | 0.0539
RRIRCRPPRLPRPRPRPYAGPRP | -0.513
RRIRRRPPRLPRPRPRPIEPPRP | -0.015
RRIRARPPRLPRPRPRPYLVPRP | 0.0333
RRIRNRPPRLPRPRPRPGRLPRP | -0.0294
RRIRDRPPRLPRPRPRPGYHPRP | -0.071
